From paper PMC8884905, “RECON syndrome is a genome instability disorder caused by mutations in the DNA helicase RECQL1” (The Journal of Clinical Investigation, 2022)

Legend:
[1] = system: RECQL1-A459S (human); experiment: EMSA; details: EMSA: 20 mM Tris pH 7.4, 10 mM KCl, 5 mM MgCl2, 10% glycerol, 80 ng/ul BSA, with or without 5 mM ATPgS, 0.5 nM DNA; competition at 37 C (8 min, then 7 min with …)
[2] = system: RECQL1 WT (human); experiment: EMSA; details: EMSA: 20 mM Tris pH 7.4, 10 mM KCl, 5 mM MgCl2, 10% glycerol, 80 ng/ul BSA, with or without 5 mM ATPgS, 0.5 nM DNA; competition at 37 C (8 min, then 7 min with …)
[3] = system: RECQL1-A459S (human); experiment: EMSA; details: EMSA: 20 mM Tris pH 7.4, 10 mM KCl, 5 mM MgCl2, 10% glycerol, 80 ng/ul BSA, with or without 5 mM ATPgS, 0.5 nM DNA; competition at 37 C (8 min, then 7 min with …); remark: listed apart in the source
[4] = system: RECQL1 WT (human); experiment: EMSA; details: EMSA: 20 mM Tris pH 7.4, 10 mM KCl, 5 mM MgCl2, 10% glycerol, 80 ng/ul BSA, with or without 5 mM ATPgS, 0.5 nM DNA; competition at 37 C (8 min, then 7 min with …); remark: listed apart in the source
[5] = molecular target: the molecule itself; experiment: SEC; size exclusion chromatography of the purified recombinant protein in the absence of ATP

Molecule	Kd [1] [nM?]	Kd [2] [nM?]	Kd [3] [nM?]	Kd [4] [nM?]	binding result [5]
19 bp forked duplex	4.74	2.94	7.69	5.39	
recombinant human WT RECQL1 (enzyme, UniProt P46063 1-649, looked up, RECQL1 (RECQL, RECQ1) DNA helicase, human, wild type; also called RECQ1; source: insect cells, purified to near homogeneity) MASVSALTEELDSITSELHAVEIQIQELTERQQELIQKKKVLTKKIKQCLEDSDAGASNEYDSSPAAWNKEDFPWSGKVKDILQNVFKLEKFRPLQLETINVTMAGKEVFLVMPTGGGKSLCYQLPALCSDGFTLVICPLISLMEDQLMVLKQLGISATMLNASSSKEHVKWVHAEMVNKNSELKLIYVTPEKIAKSKMFMSRLEKAYEARRFTRIAVDEVHCCSQWGHDFRPDYKALGILKRQFPNASLIGLTATATNHVLTDAQKILCIEKCFTFTASFNRPNLYYEVRQKPSNTEDFIEDIVKLINGRYKGQSGIIYCFSQKDSEQVTVSLQNLGIHAGAYHANLEPEDKTTVHRKWSANEIQVVVATVAFGMGIDKPDVRFVIHHSMSKSMENYYQESGRAGRDDMKADCILYYGFGDIFRISSMVVMENVGQQKLYEMVSYCQNISKCRRVLMAQHFDEVWNSEACNKMCDNCCKDSAFERKNITEYCRDLIKILKQAEELNEKLTPLKLIDSWMGKGAAKLRVAGVVAPTLPREDLEKIIAHFLIQQYLKEDYSFTAYATISYLKIGPKANLLNNEAHAITMQVTKSTQNSFRAESSQTCHSEQGDKKMEEKNSGNFQKKAANMLQQSGSKNTGAKKRKIDDA					binds
recombinant human RECQL1-A459S (enzyme, UniProt P46063 1-649, looked up, Variant found in patients (RECON syndrome); also called p.A459S mutant RECQL1; RECQL1 p.Ala459Ser; source: insect cells, purified to near homogeneity) MASVSALTEELDSITSELHAVEIQIQELTERQQELIQKKKVLTKKIKQCLEDSDAGASNEYDSSPAAWNKEDFPWSGKVKDILQNVFKLEKFRPLQLETINVTMAGKEVFLVMPTGGGKSLCYQLPALCSDGFTLVICPLISLMEDQLMVLKQLGISATMLNASSSKEHVKWVHAEMVNKNSELKLIYVTPEKIAKSKMFMSRLEKAYEARRFTRIAVDEVHCCSQWGHDFRPDYKALGILKRQFPNASLIGLTATATNHVLTDAQKILCIEKCFTFTASFNRPNLYYEVRQKPSNTEDFIEDIVKLINGRYKGQSGIIYCFSQKDSEQVTVSLQNLGIHAGAYHANLEPEDKTTVHRKWSANEIQVVVATVAFGMGIDKPDVRFVIHHSMSKSMENYYQESGRAGRDDMKADCILYYGFGDIFRISSMVVMENVGQQKLYEMVSYCQNISKCRRVLMSQHFDEVWNSEACNKMCDNCCKDSAFERKNITEYCRDLIKILKQAEELNEKLTPLKLIDSWMGKGAAKLRVAGVVAPTLPREDLEKIIAHFLIQQYLKEDYSFTAYATISYLKIGPKANLLNNEAHAITMQVTKSTQNSFRAESSQTCHSEQGDKKMEEKNSGNFQKKAANMLQQSGSKNTGAKKRKIDDA					binds
